Data taken from paper doi:10.1101/2020.05.29.123786.
Where “and” joins values, the source holds several entries; their conditions need not be identical. Equal values may be shown once.

T1: PilQ from Pseudomonas aeruginosa (type IVa pilus secretin) (Pseudomonas aeruginosa), P34750
T1 chain: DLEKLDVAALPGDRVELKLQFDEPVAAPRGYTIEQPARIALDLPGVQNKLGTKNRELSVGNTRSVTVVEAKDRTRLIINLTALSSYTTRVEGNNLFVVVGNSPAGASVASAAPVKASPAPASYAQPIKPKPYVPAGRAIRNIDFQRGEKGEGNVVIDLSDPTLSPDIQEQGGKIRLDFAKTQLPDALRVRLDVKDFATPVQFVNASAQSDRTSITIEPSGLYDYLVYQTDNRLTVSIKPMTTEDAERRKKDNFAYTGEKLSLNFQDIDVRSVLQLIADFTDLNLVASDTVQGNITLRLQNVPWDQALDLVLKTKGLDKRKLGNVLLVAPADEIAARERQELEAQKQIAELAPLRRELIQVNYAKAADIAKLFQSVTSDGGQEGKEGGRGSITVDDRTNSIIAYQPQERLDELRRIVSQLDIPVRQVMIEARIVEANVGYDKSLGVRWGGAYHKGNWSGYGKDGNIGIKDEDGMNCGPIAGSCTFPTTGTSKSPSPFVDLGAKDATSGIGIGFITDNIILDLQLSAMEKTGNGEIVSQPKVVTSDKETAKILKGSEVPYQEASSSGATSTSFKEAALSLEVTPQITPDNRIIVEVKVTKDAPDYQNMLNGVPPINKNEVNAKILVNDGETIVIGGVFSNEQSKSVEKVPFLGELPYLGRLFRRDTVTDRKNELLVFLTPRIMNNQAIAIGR


Key:
Assay in all cases: cryo-EM structure
[1] = target: TsaP from Pseudomonas aeruginosa (Pseudomonas aeruginosa)
[2] = target: PilQ from Pseudomonas aeruginosa (type IVa pilus secretin) (Pseudomonas aeruginosa) (UniProt P34750)
[3] = target: T1, PilQ from Pseudomonas aeruginosa (type …); conditions: remark: other sources report otherwise

| Molecule | stoichiometry N [1] | stoichiometry N (TsaP per PilQ) [2] | stoichiometry N [3] |
| --- | --- | --- | --- |
| TsaP from Pseudomonas aeruginosa (natural protein) | 7 | 0.5 |  |
| PilQ from Pseudomonas aeruginosa (type IVa pilus secretin), P34750 25-714 (natural protein) DLEKLDVAALPGDRVELKLQFDEPVAAPRGYTIEQPARIALDLPGVQNKLGTKNRELSVGNTRSVTVVEAKDRTRLIINLTALSSYTTRVEGNNLFVVVGNSPAGASVASAAPVKASPAPASYAQPIKPKPYVPAGRAIRNIDFQRGEKGEGNVVIDLSDPTLSPDIQEQGGKIRLDFAKTQLPDALRVRLDVKDFATPVQFVNASAQSDRTSITIEPSGLYDYLVYQTDNRLTVSIKPMTTEDAERRKKDNFAYTGEKLSLNFQDIDVRSVLQLIADFTDLNLVASDTVQGNITLRLQNVPWDQALDLVLKTKGLDKRKLGNVLLVAPADEIAARERQELEAQKQIAELAPLRRELIQVNYAKAADIAKLFQSVTSDGGQEGKEGGRGSITVDDRTNSIIAYQPQERLDELRRIVSQLDIPVRQVMIEARIVEANVGYDKSLGVRWGGAYHKGNWSGYGKDGNIGIKDEDGMNCGPIAGSCTFPTTGTSKSPSPFVDLGAKDATSGIGIGFITDNIILDLQLSAMEKTGNGEIVSQPKVVTSDKETAKILKGSEVPYQEASSSGATSTSFKEAALSLEVTPQITPDNRIIVEVKVTKDAPDYQNMLNGVPPINKNEVNAKILVNDGETIVIGGVFSNEQSKSVEKVPFLGELPYLGRLFRRDTVTDRKNELLVFLTPRIMNNQAIAIGR |  |  | 14 and 15 |
